Results on 12 molecules are retold here after patent US20230151110A1 (HUTCHISON MEDIPHARMA, published 2023).

Test [1] deals with T1, human CD47 protein on the cell surface (human, UniProt Q08722 19-323).
T1 construct: whole, on cells; One molecule is used for overexpressed (CHO-K1) and endogenous (Raji, Toledo, REC-1, red blood cells) human CD47; the cell is named under assay; also called CD47 on the surface of Raji, Toledo, REC-1 cells; CD47 on the surface of human red blood cells
Description: FACS on Toledo cells (endogenous human CD47); negative control.

In test [2] the target is T1, human CD47 protein on the cell surface. The experiment in a line: FACS on REC-1 cells (endogenous human CD47); negative control.
Test [3] shares this target. The experiment in a line: FACS on Raji cells (endogenous human CD47); negative control.
Test [4] has as its target CD47 on the surface of cynomolgus monkey B cells (cynomolgus monkey). Description: FACS on cynomolgus monkey B cells, antibody 66.7 nM; negative control.
The target in test [5] is T2, CD47 on the surface of cynomolgus monkey B cells (cynomolgus monkey, UniProt A0A5F8AK49 19-323 (rhesus entry)).
T2 construct: whole, on cells; also called cynomolgus monkey CD47
The experiment in a line: FACS on cynomolgus monkey B cells, antibody 66.7 nM.
Description: The cells were washed three times and analyzed by flow cytometry.

Test [6] deals with T3, human CD47-His fusion protein (human, UniProt Q08722 19-139).
T3 construct: Bought reagent; also called ACROBiosystems Cat: CD7-H5227; not shown: His tag
The experiment in a line: SPR (Biacore T200): antibody captured by anti-human Fc on CM5, human CD47-His as analyte, 1:1 Langmuir fit. For orientation: Surface plasmon resonance follows binding to a sensor surface in real time, without labels.

Test [7] addresses T1, human CD47 protein on the cell surface. Description: FACS on human red blood cells (endogenous CD47).
Description: The cells were washed three times with PBS containing 2% fetal bovine serum (FBS), and then the fluorescence signal was detected by Canto II (BD Biosciences) flow cytometry. According to the average fluorescence intensity (MFI) of the signal, GraphPad was used for fitting a concentration dependent curve, and the EC₅₀ was calculated.
Test [8] has as its target T4, recombinant protein hCD47-Fc containing the extracellular domain of human CD47 fused with the Fc fragment of … (human, UniProt Q08722 19-139).
T4 construct: extracellular domain; Bought reagent; also called ACROBiosystems Cat: CD7-H5256; not shown: Fc fragment of human IgG
The experiment in a line: competition ELISA as in Example 1.3: hCD47-Fc coated, SIRPα-His as competitor ligand, anti-His-HRP.

Test [9] has as its target T1, human CD47 protein on the cell surface. The experiment in a line: FACS on REC-1 cells (endogenous human CD47).
Description: (§1) Human CD47 was endogenously expressed on the cell surface of human Burkitt lymphoma cell line Raji. […] The diluted antibodies were mixed with and co-incubated with Raji cells (purchased from ATCC) (5*10⁵ cells/well) at 4° C. for 1 hour. […] The cells were washed three times with PBS containing 2% fetal bovine serum (FBS), and then the fluorescence signal was detected by CantoII (BD Biosciences) flow cytometry, and according to the average fluorescence intensity (MFI) of the signal, GraphPad was used for fitting a concentration dependent curve, and the EC₅₀ was calculated.
Test [10] shares this target. Description: FACS on Raji cells (endogenous human CD47).
Description: as §1
For test [11] the target is unchanged. The experiment in a line: FACS on Toledo cells (endogenous human CD47).
Description: as §1
The target is the same in test [12]. Description: FACS on CHO-K1 cells overexpressing human CD47.
Description: A human CD47 protein (NCBI accession number: NP_001768.1) was overexpressed in hamster ovary cell line CHO-K1 to establish CHO-K1 cell line overexpressing the human CD47 protein. […] After washing twice with iced PBS, the cells were incubated with an iFluor647-labeled goat anti-mouse IgG (H+L) antibody (Genscript) at 4° C. in the dark for 40 minutes. The cells were washed twice with iced PBS, and then the fluorescence signal was detected by Calibur (BD Biosciences) flow cytometry, and according to the average fluorescence intensity (MFI) of the signal, GraphPad was used for fitting a concentration dependent curve, and the EC₅₀ was calculated.
For test [13] the target is unchanged. The experiment in a line: FACS on Raji cells (endogenous human CD47), n = 3.
Description: as §1
Test [14] concerns the target T4, recombinant protein hCD47-Fc containing …. Description: competition ELISA: hCD47-Fc coated, SIRPα-His 2.5 µg/ml as competitor ligand, anti-His-HRP. Background: An ELISA detects its analyte on a solid surface through an enzyme-linked reagent.
Description: The recombinant protein hCD47-Fc containing the extracellular domain of human CD47 fused with the Fc fragment of human IgG (ACROBiosystems, Cat: CD7-H5256) was coated onto a 96-well plate and incubated overnight at 4° C. After the plate was washed 3 times with PBST (PBS containing 0.5% Tween-20), PBST containing 1% BSA was added for blocking the plate for 2 hours. […] After the 96-well plate was incubated at 37° C. for 30 minutes, the plate was washed 5 times with PBST, and a TMD (Surmodics, Cat: TMBW-1000-01) developing solution was added, and was incubated in the dark for 15 minutes. 2N H₂SO₄ was added to terminate the color-developing reaction. OD₄₅₀ was read on a microplate reader.

Where a chain is given by its changes, count along the chain named. In names and notes the source's numbering stands.

“negative isotype control antibody (isotype), human IgG4P”: the Max MFI in test [1] is 50 MFI; in test [2], 265 MFI; in test [3] it was 175 MFI; in test [4], 53 MFI.

B1: Hu-125G4A4m-43 (antibody, V domains shown)
VH: QVQLVQSGAEVKKPGSSVKVSCKASGYTFTSYYMHWVRQAPGQGLEWMGYIDPANDYSDYNQNFKDRVTITADKSTRTTYMELTSLRSEDTAVYYCARLGYGQSSPFDYWGQGTTVTVSS
VL: DIQMTQSPSSLSASVGDRVTITCKASQDIHNYLSWFQQKPGKAPKSLIYRAKRLVEGVPSRFSGSGSGQDYTLTISSLQPEDFATYYCLQYDELYTFGQGTRLEIK
notes: Humanized antibody, IgG4 S228P (IgG4P) subtype
For the molecule B1, in [5], the “Max MFI” value stood at 3260 MFI and the “Max MFI compared with Ch-125G4m-m35 value, %” value (from here on “Max MFI … %”) was 72%.

B2: Hu-125G4A4m-45 (antibody, V domains shown)
VH: B1 VH with T79A
VL: B1 VL with Q69T
notes: as for B1
B2: in test [5], the “Max MFI” value was found to be 2630 MFI and the “Max MFI … %” value is 58%.

B3: Hu-125G4A4m-44 (antibody, V domains shown)
VH: B1 VH
VL: B1 VL with Q3K, S46T, S60L, Y87F
notes: as for B1
B3: in test [5], the “Max MFI” value turned out to be 4510 MFI and the “Max MFI … %” value came out at 99%.

B4: Hu-125G4A4m-49 (antibody, V domains shown)
VH: B1 VH with V68A, I70L
VL: B1 VL
notes: as for B1
Consider B4, for which, in test [5], the “Max MFI” value was found to be 4080 MFI and the “Max MFI … %” value came to 90%.

B5: Hu-125G4A4m-47 (antibody, V domains shown)
VH: B1 VH with T79A
VL: B1 VL with Q3K, S46T, S60L, Y87F
notes: as for B1
With B5, in test [5], the “Max MFI” value amounted to 4100 MFI and the “Max MFI … %” value worked out at 90%.

B6: humanized antibody HMA02h14-48 (antibody, V domains shown)
VH: B1 VH with V68A, I70L
VL: B1 VL with Q69T
notes: Humanized antibody, IgG4 S228P (IgG4P) subtype; also called Hu-125G4A4m-48; Hu-125G4A4-48
With B6, the Kd (commonly the equilibrium constant for the complex coming apart) in test [6] was 0.777 nM. Further, the “Max MFI” value in test [5] turned out to be 4200 MFI. Moreover, the “Max MFI … %” value in [5] was 92%. The EC50 (usually the concentration at which the effect is half-maximal) came to 3.9 nM in test [7], 0.6 nM in [9], 1.2 nM in test [10] and 2.2 nM in [11]. In addition, the 50% inhibitory concentration (IC50) (as a rule, the concentration needed to halve the response being measured) in test [8] is 1.58 nM.

B7: Hu-125G4A4m-50 (antibody, V domains shown)
VH: B1 VH with V68A, I70L
VL: B1 VL with Q3K, S46T, S60L, Y87F
notes: as for B1
With B7, in [5], the “Max MFI” value was 4840 MFI and the “Max MFI … %” value came out at 106%.

B8: Hu-125G4A4m-46 (antibody, V domains shown)
VH: B1 VH with T79A
VL: B1 VL
notes: as for B1
As to B8, in test [5], the “Max MFI” value worked out at 2520 MFI and the “Max MFI … %” value worked out at 55%.

B9: control antibody Hu5F9 (antibody, V domains shown)
VH: QVQLVQSGAEVKKPGASVKVSCKASGYTFTNYNMHWVRQAPGQRLEWMGTIYPGNDDTSYNQKFKDRVTITADTSASTAYMELSSLRSEDTAVYYCARGGYRAMDYWGQGTLVTVSS
VL: DIVMTQSPLSLPVTPGEPASISCRSSQSIVYSNGNTYLGWYLQKPGQSPQLLIYKVSNRFSGVPDRFSGSGSGTDFTLKISRVEAEDVGVYYCFQGSHVPYTFGQGTKLEIK
For B9, in [5], the “Max MFI” value amounted to 4120 MFI and the “Max MFI … %” value is 90%.

B10: chimeric antibody Ch-125G4-m35 (antibody, V domains shown)
VH: QVQLQQSGTELAKPGASVKMSCKASGYTFTSYYMHWVKQRPGQILEWIGYIDPANDYSDYNQNFKDKATLTADKSSRTTYMQLTSLTSEDSAVYYCARLGYGQSSPFDYWGQGTTLIVSS
VL: DIKMTQSPSSMYASVGERVTITCKASQDIHNYLSWFQQKPGKSPKTLIYRAKRLVEGVPLRFSGSGSGQDYSLTISSLEYEDMGIYFCLQYDELYTFGGGTRLEIK
notes: Chimeric antibody with human IgG4 (S228P) heavy chain constant region and human kappa light chain constant region; PTM sites mutated (NSS to QSS in the heavy chain, DG to EG in the light chain); also called Ch-125G4m-m35; 125G4A4m
Regarding B10, in test [5], the “Max MFI” value was 4550 MFI and the “Max MFI … %” value worked out at 100%.

B11: hybridoma-derived antibody 125G4A4 (antibody, V domains shown)
VH: B10 VH with Q103N
VL: B10 VL with E56D
notes: Mouse antibody purified from hybridoma supernatant on Protein A
B11: the EC50 was determined as 0.22 nM in test [12] and 0.84 nM in test [13]. For the same molecule, the IC50 in test [14] turned out to be 3.06 nM.
